Measured values reported in publication PMC4751602.

B1: 2AP Gap-43 5'GQ RNA (structured_RNA)
RNA: GGGAGGGAGGGAGGGAGAGC
modifications: 2-aminopurine replaces A4
B2: Gap-43 5'GQ (5' biotin) (structured_RNA)
RNA: GGGAGGGAGGGAGGGA

Columns and labels:
hnRNP-Q1 RGG box peptide = target: T1, hnRNP-Q1 RGG box peptide (UniProt O60506-3 406-561); test: fluorescence spectroscopy
T1 sequence: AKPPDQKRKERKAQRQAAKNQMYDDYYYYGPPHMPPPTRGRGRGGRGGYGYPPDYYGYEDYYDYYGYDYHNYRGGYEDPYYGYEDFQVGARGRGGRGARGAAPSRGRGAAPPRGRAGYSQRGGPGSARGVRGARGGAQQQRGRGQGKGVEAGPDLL

GST-hnRNP-Q1 = target: T2, GST-hnRNP-Q1 (UniProt O60506-3 1-562); test: biotin pull-down, GST immunoblot
T2 sequence: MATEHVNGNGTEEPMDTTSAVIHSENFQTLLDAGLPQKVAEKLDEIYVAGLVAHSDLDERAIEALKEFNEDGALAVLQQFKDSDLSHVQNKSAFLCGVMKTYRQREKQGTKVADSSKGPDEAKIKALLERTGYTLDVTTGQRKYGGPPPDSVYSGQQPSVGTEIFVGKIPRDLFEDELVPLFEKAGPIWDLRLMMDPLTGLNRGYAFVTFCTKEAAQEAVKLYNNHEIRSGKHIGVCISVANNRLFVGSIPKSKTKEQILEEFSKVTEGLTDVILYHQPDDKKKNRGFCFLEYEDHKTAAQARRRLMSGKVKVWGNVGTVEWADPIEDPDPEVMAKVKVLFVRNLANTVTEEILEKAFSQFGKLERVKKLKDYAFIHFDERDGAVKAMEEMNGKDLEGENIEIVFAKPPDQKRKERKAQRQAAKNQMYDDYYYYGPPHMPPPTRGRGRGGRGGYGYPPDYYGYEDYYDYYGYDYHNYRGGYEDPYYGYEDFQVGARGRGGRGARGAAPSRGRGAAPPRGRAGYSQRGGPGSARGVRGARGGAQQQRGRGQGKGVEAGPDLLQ

Row | Binder | Kd (hnRNP-Q1 RGG box peptide) | binding result (GST-hnRNP-Q1)
1 | B1 | 131 ± 14 nM | 
2 | B2 |  | binds
